Results: PMC6570480, “PLK4 promotes centriole duplication by phosphorylating STIL to link the procentriole cartwheel to the microtubule wall” (eLife, 2019)
Each block holds one binder with its values, some of them ahead of it.

Columns and labels:
[1] = biological target: T1, Myc-GFP-STIL (wild type) phosphorylated in cells by co-expressed kinase active PLK4^Δ24-mCherry (human, UniProt Q15468 1-1287, phosphoserine at 428 and at 1116 (phosphorylated in cells by co-expressed kinase active PLK4^Δ24-mCherry; shown with pS428 and pS1116 antibodies)); assay: co-IP; HEK293FT cells co-transfected, with kinase active or kinase dead PLK4^Δ24-mCherry where stated; lysis buffer 10 mM Tris pH 7.5, 0.1% Triton X-100, 250 mM NaCl, 1 mM EDTA, phosphatase inhibitors; Myc-GFP-STIL captured on beads coupled to GFP-binding protein; immunoblot; conditions: partners not purified
T1 construct: STIL, human; Further PLK4 sites may be phosphorylated (84 sites were found in vitro); also called WT STIL; phosphorylated STIL; source: HEK293FT, transfected together with kinase active PLK4^Δ24-mCherry, in lysate; not shown: Myc, N-terminal, kept; GFP, N-terminal, kept
T1 sequence (looked up): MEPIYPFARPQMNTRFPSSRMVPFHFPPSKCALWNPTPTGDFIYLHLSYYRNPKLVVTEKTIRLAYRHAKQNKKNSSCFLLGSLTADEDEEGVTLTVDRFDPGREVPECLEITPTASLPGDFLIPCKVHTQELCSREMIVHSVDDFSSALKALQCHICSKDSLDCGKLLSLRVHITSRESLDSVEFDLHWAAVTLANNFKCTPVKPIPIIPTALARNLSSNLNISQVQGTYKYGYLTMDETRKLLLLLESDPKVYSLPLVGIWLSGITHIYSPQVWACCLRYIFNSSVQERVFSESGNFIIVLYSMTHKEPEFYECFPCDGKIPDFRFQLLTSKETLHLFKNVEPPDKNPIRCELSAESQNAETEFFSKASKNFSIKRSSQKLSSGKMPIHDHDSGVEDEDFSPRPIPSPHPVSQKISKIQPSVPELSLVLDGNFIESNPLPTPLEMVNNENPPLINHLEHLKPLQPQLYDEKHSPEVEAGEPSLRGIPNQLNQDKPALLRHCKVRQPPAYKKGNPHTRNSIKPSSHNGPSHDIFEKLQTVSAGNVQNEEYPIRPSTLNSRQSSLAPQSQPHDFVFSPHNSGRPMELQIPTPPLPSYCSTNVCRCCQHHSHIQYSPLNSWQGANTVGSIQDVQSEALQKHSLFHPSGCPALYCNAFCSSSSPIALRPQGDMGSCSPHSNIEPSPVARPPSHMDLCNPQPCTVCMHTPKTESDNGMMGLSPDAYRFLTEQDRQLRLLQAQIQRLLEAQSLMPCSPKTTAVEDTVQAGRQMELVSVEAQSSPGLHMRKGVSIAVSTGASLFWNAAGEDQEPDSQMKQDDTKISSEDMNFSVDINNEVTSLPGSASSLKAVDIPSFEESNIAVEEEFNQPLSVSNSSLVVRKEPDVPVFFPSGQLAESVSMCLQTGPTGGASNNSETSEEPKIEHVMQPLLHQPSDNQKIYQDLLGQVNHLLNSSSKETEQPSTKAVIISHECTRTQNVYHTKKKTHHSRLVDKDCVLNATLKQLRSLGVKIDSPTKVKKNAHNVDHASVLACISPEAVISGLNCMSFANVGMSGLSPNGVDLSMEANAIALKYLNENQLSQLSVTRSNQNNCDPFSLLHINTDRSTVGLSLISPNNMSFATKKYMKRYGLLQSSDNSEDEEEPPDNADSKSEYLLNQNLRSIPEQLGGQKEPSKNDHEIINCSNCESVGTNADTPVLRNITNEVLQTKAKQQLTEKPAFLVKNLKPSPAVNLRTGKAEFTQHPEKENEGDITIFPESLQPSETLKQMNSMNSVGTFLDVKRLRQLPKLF

[2] = biological target: T2, Myc-GFP-Ana2 (WT) co-expressed with stabilized DmPLK4^SBM-mCherry (D. melanogaster, UniProt Q9XZ31 1-420, phosphorylated in cells by co-expressed DmPLK4^SBM-mCherry; phosphoserine at 38 (a DmPLK4 site by the cited work)); assay: co-IP; Drosophila S2 cells transfected with Myc-GFP-Ana2 and Flag-DmSas4 in the presence or absence of DmPLK4^SBM-mCherry; harvested 48 hr later; co-immunoprecipitation and immunoblot; conditions: partners not purified
T2 construct: Ana2, D. melanogaster; it rests on the S38A mutant; also called WT Ana2; phosphorylated Ana2; source: Drosophila S2 cells, transfected together with DmPLK4^SBM-mCherry, in lysate; not shown: Myc, N-terminal, kept; GFP, N-terminal, kept
T2 sequence (looked up): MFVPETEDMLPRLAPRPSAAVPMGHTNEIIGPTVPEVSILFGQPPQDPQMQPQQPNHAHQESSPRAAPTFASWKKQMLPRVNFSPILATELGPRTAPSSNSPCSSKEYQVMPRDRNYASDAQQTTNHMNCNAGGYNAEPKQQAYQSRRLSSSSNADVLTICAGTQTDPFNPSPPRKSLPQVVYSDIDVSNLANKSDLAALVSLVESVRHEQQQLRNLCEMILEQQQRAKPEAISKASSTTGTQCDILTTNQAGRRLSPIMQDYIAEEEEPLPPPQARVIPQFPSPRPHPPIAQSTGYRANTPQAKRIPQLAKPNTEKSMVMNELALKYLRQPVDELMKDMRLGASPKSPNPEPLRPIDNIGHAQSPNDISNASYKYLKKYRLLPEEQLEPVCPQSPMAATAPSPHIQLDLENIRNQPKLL

- fold increase in the amount of CPAP bound, kinase active against kinase inactive PLK4 [1]: > 7 fold
B1: FLAG-CPAP (natural protein, human, UniProt Q9HC77 1-1338, looked up)
chain: MFLMPTSSELNSGQNFLTQWMTNPSRAGVILNRGFPILEADKEKRAAVDISTSFPIKGTHFSDSFSFINEEDSLLEEQKLESNNPYKPQSDKSETHTAFPCIKKGPQVAACHSAPGHQEENKNDFIPDLASEFKEGAYKDPLFKKLEQLKEVQQKKQEQLKRQQLEQLQRLMEEQEKLLTMVSGQCTLPGLSLLPDDQSQKHRSPGNTTTGERATCCFPSYVYPDPTQEETYPSNILSHEQSNFCRTAHGDFVLTSKRASPNLFSEAQYQEAPVEKNNLKEENRNHPTGESILCWEKVTEQIQEANDKNLQKHDDSSEVANIEERPIKAAIGERKQTFEDYLEEQIQLEEQELKQKQLKEAEGPLPIKAKPKQPFLKRGEGLARFTNAKSKFQKGKESKLVTNQSTSEDQPLFKMDRQQLQRKTALKNKELCADNPILKKDSKARTKSGSVTLSQKPKMLKCSNRKSLSPSGLKIQTGKKCDGQFRDQIKFENKVTSNNKENVTECPKPCDTGCTGWNKTQGKDRLPLSTGPASRLAAKSPIRETMKESESSLDVSLQKKLETWEREKEKENLELDEFLFLEQAADEISFSSNSSFVLKILERDQQICKGHRMSSTPVKAVPQKTNPADPISHCNRSEDLDHTAREKESECEVAPKQLHSLSSADELREQPCKIRKAVQKSTSENQTEWNARDDEGVPNSDSSTDSEEQLDVTIKPSTEDRERGISSREDSPQVCDDKGPFKDTRTQEDKRRDVDLDLSDKDYSSDESIMESIKHKVSEPSRSSSLSLSKMDFDDERTWTDLEENLCNHDVVLGNESTYGTPQTCYPNNEIGILDKTIKRKIAPVKRGEDLSKSRRSRSPPTSELMMKFFPSLKPKPKSDSHLGNELKLNISQDQPPGDNARSQVLREKIIELETEIEKFKAENASLAKLRIERESALEKLRKEIADFEQQKAKELARIEEFKKEEMRKLQKERKVFEKYTTAARTFPDKKEREEIQTLKQQIADLREDLKRKETKWSSTHSRLRSQIQMLVRENTDLREEIKVMERFRLDAWKRAEAIESSLEVEKKDKLANTSVRFQNSQISSGTQVEKYKKNYLPMQGNPPRRSKSAPPRDLGNLDKGQAASPREPLEPLNFPDPEYKEEEEDQDIQGEISHPDGKVEKVYKNGCRVILFPNGTRKEVSADGKTITVTFFNGDVKQVMPDQRVIYYYAAAQTTHTTYPEGLEVLHFSSGQIEKHYPDGRKEITFPDQTVKNLFPDGQEESIFPDGTIVRVQRDGNKLIEFNNGQRELHTAQFKRREYPDGTVKTVYANGHQETKYRSGRIRVKDKEGNVLMDTEL
notes: CPAP (CENPJ), human; also called CENPJ; source: HEK293FT, transfected, in lysate; not shown: FLAG, N-terminal, kept

- fold increase in the amount of DmSas4 bound, with against without DmPLK4^SBM [2]: > 6 fold
B2: Flag-DmSas4 (natural protein, D. melanogaster, UniProt Q9VI72 1-901, looked up)
chain: MQEAGESPVGMPLSQEAIAQRLAALSRWQDEQKRLLQERQSNHRVLLGLEQRNMYKMLGLLHQETESHENSVLEEWDEEHSIQMPRLAADPDEHEPEISMADPQPAKPKRPFLRRGEGLKQRFKINPDQLRLENLPRYKFANAHPQFRTPQMKKGILKKQVKSPPNPAPPPAPKPSAQLDDLNEQRFQQMLIGKNACSSTPDLKSSYASSTTASSTSPRVRFVEQKSRAGQTTHADDEASSEASPMTGVCWAKVLDTQSIKPAQIQRRSAQIRVEDDSNVSIFELLEQKATEGNIDMNSSCIRTFMARKDQRRRVADDSDHIVVTQQVRQMRLQPQVDQMLVQELQEGDEEDTEPSSDQTLTMTPIQVGNTKVRVRFSDSNDTHEYSDATSLNDGSNIQLFEQFKSALFQALEQKKKSSPSKESDEPITKDLQEKANLVRTRLEELETEIATFKEQNAQLLRLRQQHELEKAKCTQDHMEAMERVHDEKIQAEIYLHDERMKIEEERRKFEQQMRLQKSNANSKEKKEIAALKQEVEGLQLQLKQKEQAHVSAQARLRAQLRASEKEQRNYRDEIELLRKENKRLEQELVKIGRENNSKMLQEINRNIARLAPKVLPSATMSDILDENGRRTQSLDGTAGKPAKQREAQNRRQSSGSAQVRSRSRSLSRNKKTPYALDESYASSSSVESEEVQPPVTAPKAATPPPAANSSSDFKREITNADGSKDIWYPNGNLKKISADGMNLRMLYFNKDIKETNIREGTVKYYYAETNTWHTSYLDGLEILEFPNGQTEHRRKDGTVEIHFPNNSIKIVDPSDTEKLEEWRYADGTHLVQLRNGDKILNLPNGQKEIHTKLNKRREYPDGTVKLVYPDGSQETRYSNGRVRLKDKDGKLIMDTDYAKY
notes: Sas-4 (DmSas4), D. melanogaster; also called CPAP orthologue DmSas4; source: Drosophila S2 cells, transfected, in lysate; not shown: FLAG, N-terminal, kept
